Key:
[1] = molecular target: T1, E53 (Erythrobacter longus, UniProt A0A074MDU6, I256L); test: X-ray crystal structure, substrate soak; assay type: binding; conditions: pH 6.5 crystals; active site
T1 construct: gene EH31_02760; full length, 314 residues; N-terminal His6-SUMO tag (pSMT3) removed with Ulp1; E. coli BL21(DE3); monomer

[2] = molecular target: T2, E53 (Erythrobacter longus, UniProt A0A074MDU6, S285G); test: X-ray crystal structure, substrate soak; assay type: binding; conditions: pH 6.5 crystals; active site
T2 construct: gene EH31_02760; full length, 314 residues; N-terminal His6-SUMO tag (pSMT3) removed with Ulp1; E. coli BL21(DE3); monomer

[3] = molecular target: T3, E53 (Erythrobacter longus, UniProt A0A074MDU6); test: X-ray crystal structure, substrate soak; assay type: binding; conditions: pH 6.5 crystals; active site
T3 construct: gene EH31_02760; full length, 314 residues; N-terminal His6-SUMO tag (pSMT3) removed with Ulp1; E. coli BL21(DE3); monomer

[4] = substrate: CCCC(=O)Oc1ccc([N+](=O)[O-])cc1; test: purified protein; assay type: biochemical, Erythrobacter longus; conditions: Tris-HCl pH 9.0 (also pH 7.0), 40 °C, 0.05-4.00 mM substrate

T2 sequence (A0A074MDU6 entry or part of it S285G): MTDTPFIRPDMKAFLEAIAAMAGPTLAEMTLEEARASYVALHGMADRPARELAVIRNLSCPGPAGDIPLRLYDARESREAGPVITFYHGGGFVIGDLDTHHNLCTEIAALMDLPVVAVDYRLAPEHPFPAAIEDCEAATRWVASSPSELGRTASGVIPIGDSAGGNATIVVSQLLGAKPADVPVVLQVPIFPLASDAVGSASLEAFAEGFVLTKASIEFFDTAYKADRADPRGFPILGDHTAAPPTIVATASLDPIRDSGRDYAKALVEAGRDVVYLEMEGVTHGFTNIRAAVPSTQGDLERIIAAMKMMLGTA

## CCCCCC(=O)Oc1ccc([N+](=O)[O-])cc1 [C6, p-NP hexanoate]
[1]
  X-ray crystal structure, substrate soak: observed in the crystal structures of E53, I256L, and S285G
[2]
  X-ray crystal structure, substrate soak: observed in the crystal structures of E53, I256L, and S285G
[3]
  X-ray crystal structure, substrate soak: observed in the crystal structures of E53, I256L, and S285G

B1: E53 (Erythrobacter longus; F191Y) (protein)
chain: MTDTPFIRPDMKAFLEAIAAMAGPTLAEMTLEEARASYVALHGMADRPARELAVIRNLSCPGPAGDIPLRLYDARESREAGPVITFYHGGGFVIGDLDTHHNLCTEIAALMDLPVVAVDYRLAPEHPFPAAIEDCEAATRWVASSPSELGRTASGVIPIGDSAGGNATIVVSQLLGAKPADVPVVLQVPIYPLASDAVGSASLEAFAEGFVLTKASIEFFDTAYKADRADPRGFPILGDHTAAPPTIVATASLDPIRDSGRDYAKALVEAGRDVVYLEMEGVTHSFTNIRAAVPSTQGDLERIIAAMKMMLGTA
notes: full length, 314 residues; N-terminal His6-SUMO tag (pSMT3) removed with Ulp1; E. coli BL21(DE3); monomer
[4]
  Km: 210 ± 20 µM

B2: E53 (Erythrobacter longus; V211A) (protein)
chain: MTDTPFIRPDMKAFLEAIAAMAGPTLAEMTLEEARASYVALHGMADRPARELAVIRNLSCPGPAGDIPLRLYDARESREAGPVITFYHGGGFVIGDLDTHHNLCTEIAALMDLPVVAVDYRLAPEHPFPAAIEDCEAATRWVASSPSELGRTASGVIPIGDSAGGNATIVVSQLLGAKPADVPVVLQVPIFPLASDAVGSASLEAFAEGFALTKASIEFFDTAYKADRADPRGFPILGDHTAAPPTIVATASLDPIRDSGRDYAKALVEAGRDVVYLEMEGVTHSFTNIRAAVPSTQGDLERIIAAMKMMLGTA
notes: as for B1
[4]
  Km: 520 ± 30 µM

B3: E53 (Erythrobacter longus; S216A) (protein)
chain: MTDTPFIRPDMKAFLEAIAAMAGPTLAEMTLEEARASYVALHGMADRPARELAVIRNLSCPGPAGDIPLRLYDARESREAGPVITFYHGGGFVIGDLDTHHNLCTEIAALMDLPVVAVDYRLAPEHPFPAAIEDCEAATRWVASSPSELGRTASGVIPIGDSAGGNATIVVSQLLGAKPADVPVVLQVPIFPLASDAVGSASLEAFAEGFVLTKAAIEFFDTAYKADRADPRGFPILGDHTAAPPTIVATASLDPIRDSGRDYAKALVEAGRDVVYLEMEGVTHSFTNIRAAVPSTQGDLERIIAAMKMMLGTA
notes: as for B1
[4]
  Km: 420 ± 30 µM

B4: E53 (Erythrobacter longus; A167L) (protein)
chain: MTDTPFIRPDMKAFLEAIAAMAGPTLAEMTLEEARASYVALHGMADRPARELAVIRNLSCPGPAGDIPLRLYDARESREAGPVITFYHGGGFVIGDLDTHHNLCTEIAALMDLPVVAVDYRLAPEHPFPAAIEDCEAATRWVASSPSELGRTASGVIPIGDSAGGNLTIVVSQLLGAKPADVPVVLQVPIFPLASDAVGSASLEAFAEGFVLTKASIEFFDTAYKADRADPRGFPILGDHTAAPPTIVATASLDPIRDSGRDYAKALVEAGRDVVYLEMEGVTHSFTNIRAAVPSTQGDLERIIAAMKMMLGTA
notes: as for B1
[4]
  Km: 150 ± 10 µM

B5: E53 (Erythrobacter longus; N166A) (protein)
chain: MTDTPFIRPDMKAFLEAIAAMAGPTLAEMTLEEARASYVALHGMADRPARELAVIRNLSCPGPAGDIPLRLYDARESREAGPVITFYHGGGFVIGDLDTHHNLCTEIAALMDLPVVAVDYRLAPEHPFPAAIEDCEAATRWVASSPSELGRTASGVIPIGDSAGGAATIVVSQLLGAKPADVPVVLQVPIFPLASDAVGSASLEAFAEGFVLTKASIEFFDTAYKADRADPRGFPILGDHTAAPPTIVATASLDPIRDSGRDYAKALVEAGRDVVYLEMEGVTHSFTNIRAAVPSTQGDLERIIAAMKMMLGTA
notes: as for B1
[4]
  Km: 460 ± 40 µM

B6: E53 (Erythrobacter longus; I256L) (protein)
chain: MTDTPFIRPDMKAFLEAIAAMAGPTLAEMTLEEARASYVALHGMADRPARELAVIRNLSCPGPAGDIPLRLYDARESREAGPVITFYHGGGFVIGDLDTHHNLCTEIAALMDLPVVAVDYRLAPEHPFPAAIEDCEAATRWVASSPSELGRTASGVIPIGDSAGGNATIVVSQLLGAKPADVPVVLQVPIFPLASDAVGSASLEAFAEGFVLTKASIEFFDTAYKADRADPRGFPILGDHTAAPPTIVATASLDPLRDSGRDYAKALVEAGRDVVYLEMEGVTHSFTNIRAAVPSTQGDLERIIAAMKMMLGTA
notes: as for B1
[4]
  Km: 230 ± 20 µM

B7: E53 (Erythrobacter longus) (protein)
chain: MTDTPFIRPDMKAFLEAIAAMAGPTLAEMTLEEARASYVALHGMADRPARELAVIRNLSCPGPAGDIPLRLYDARESREAGPVITFYHGGGFVIGDLDTHHNLCTEIAALMDLPVVAVDYRLAPEHPFPAAIEDCEAATRWVASSPSELGRTASGVIPIGDSAGGNATIVVSQLLGAKPADVPVVLQVPIFPLASDAVGSASLEAFAEGFVLTKASIEFFDTAYKADRADPRGFPILGDHTAAPPTIVATASLDPIRDSGRDYAKALVEAGRDVVYLEMEGVTHSFTNIRAAVPSTQGDLERIIAAMKMMLGTA
notes: as for B1
[4]
  Km: 330 ± 30 µM
